In article PMC9353652 (Journal of the American Chemical Society, 2021):

How the values were obtained:
[1] = biological target: ATP-grasp ligase CdnC (Chryseobacterium gregarium DSM 19109); test: SEC

ATP-grasp ligase CdnC (enzyme)
stoichiometry N [1]: 2

chryseoviridin (fully cyclized, full length core region of CdnA3) (peptide)
inhibition of chymotrypsin activity (protease inhibition assay) (chymotrypsin): 70 nM
